The values that follow come from publication PMC4850247.

Experiment [1] concerns the target OTUD3 (aa 52-209) (human) (UniProt Q5T2D3).
The target in experiment [2] is Full-length human OTUD2 (human) (UniProt Q5VVQ6).
For experiment [3] the target is unchanged. Put plainly: covalent labelling with an active site-directed probe (SDS-PAGE, fluorescence scan); 0.2 μM OTUD2 with 2 μM TAMRA-labeled mUb-PA or diUb-PA probes, time course, 30°C, 20 mM Tris-HCl pH 7.5, 150 mM NaCl; bands quantified and fitted by pseudo-first-order one-phase association, plateau forced to that of K11.
Experiment [4] has as its target OTUD2 OTU (aa 147-314) (human) (UniProt Q5VVQ6). Put plainly: covalent labelling with an active site-directed probe (SDS-PAGE, fluorescence scan); 0.1 μM OTUD2 constructs with 1 μM TAMRA-labeled K11-linked diUb-PA, time course up to 60 min, bands quantified.
For experiment [5], the target named is Full-length human OTUD2 (human) (UniProt Q5VVQ6). The description is as above.

Chain of UniProt Q5T2D3 (Q5T2D3 52-209): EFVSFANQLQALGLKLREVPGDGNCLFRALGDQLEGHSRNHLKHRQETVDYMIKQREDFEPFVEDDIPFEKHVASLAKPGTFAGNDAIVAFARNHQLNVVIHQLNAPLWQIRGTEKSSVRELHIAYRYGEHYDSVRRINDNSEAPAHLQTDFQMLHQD

Consider “K27 triazole-linked diUb-AMC substrate (from UniProt P0CG48 1-76)”, for which the KM of AMC release from diUb-AMC (Michaelis-Menten, 15 nM OTUD3) in experiment [1] amounted to 4.7 µM.

Turning to “K33 triazole-linked diUb-AMC substrate (from UniProt P0CG48 1-76)”, the KM of AMC release from diUb-AMC (Michaelis-Menten, 15 nM OTUD2, substrate up to 20 μM) in experiment [2] was 100 µM.

“K11 triazole-linked diUb-AMC substrate (from UniProt P0CG48 1-76)”: the KM of AMC release from diUb-AMC (Michaelis-Menten, 15 nM OTUD3) in experiment [1] amounted to 3.7 µM. The KM of AMC release from diUb-AMC (Michaelis-Menten, 15 nM OTUD2, substrate up to 20 μM) in experiment [2] is 20 µM.

Turning to “TAMRA-labeled K33 triazole-linked diUb-PA probe (from UniProt P0CG48 1-75; P0CG48 1-75)”, the t1/2 of covalent probe labelling in experiment [3] was 8.5 min.

Take “TAMRA-labeled K11 triazole-linked diUb-PA probe (from UniProt P0CG48 1-75; P0CG48 1-75)”: the t1/2 of covalent probe labelling in experiment [3] was found to be 3.5 min; in experiment [4], 6.8 min; in experiment [5] it was 5.3 min.
